The target in experiment [1] is RanGAP1-SUMO1/UBC9 (human) (UniProt P46060).
For experiment [2] the target is unchanged. The source holds these as a separate data set.
The target of experiment [3] is UBC9 (human, UniProt P63279). The experiment in a line: crystal structure.

From publication PMC3281653 (The Journal of Biological Chemistry, 2011) come the findings set out here.

Like-named read-outs stand apart in the source and are kept apart here.

Chain of RanGAP1-SUMO1/UBC9 (human) (P46060 419-578, chain 1 of 3): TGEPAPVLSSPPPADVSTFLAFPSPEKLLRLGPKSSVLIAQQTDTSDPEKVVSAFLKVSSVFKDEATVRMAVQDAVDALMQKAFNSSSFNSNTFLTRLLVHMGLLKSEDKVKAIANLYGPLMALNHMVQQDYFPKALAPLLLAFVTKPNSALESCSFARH
Chain of RanGAP1-SUMO1/UBC9 (human) (P63165 18-97, chain 2 of 3, further chain): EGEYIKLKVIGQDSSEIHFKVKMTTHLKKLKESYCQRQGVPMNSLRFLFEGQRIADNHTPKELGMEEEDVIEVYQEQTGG
Chain of RanGAP1-SUMO1/UBC9 (human) (P63279 whole entry, chain 3 of 3, further chain): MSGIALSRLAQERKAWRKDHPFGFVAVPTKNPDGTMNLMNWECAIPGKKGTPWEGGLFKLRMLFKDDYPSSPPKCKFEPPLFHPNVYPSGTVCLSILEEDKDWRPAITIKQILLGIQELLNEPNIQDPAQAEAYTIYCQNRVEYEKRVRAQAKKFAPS
Chain of UBC9 (P63279 whole entry): as the sequence (P63279 whole entry, chain 3 of 3, further chain) above

With “IR1-M-IR2 (RanBP2 residues 2631–2771) (from UniProt P49792 2631-2771) (domain or fragment)”, the protease protection from SENP1: protection of RanGAP1-SUMO1 against that by IR1 in experiment [1] came out at 16 fold.

As to IR2SIM-IR1_(II–V) (domain or fragment), the protease protection from SENP1: protection of RanGAP1-SUMO1 against that by IR1 in experiment [2] came out at 144 fold.

B1: IR1 (RanBP2 residues 2631–2695) (domain or fragment)
chain: DVLIVYELTPTAEQKALATKLKLPPTFFCYKNRPDYVSEEEEDDEDFETAVKKLNGKLYLDGSEK
On to B1, for which, in experiment [3], the binding result is “binds”.
